According to article PMC11306251, “An integrative structural study of the human full-length RAD52 at 2.2 Å resolution” (Communications Biology, 2024):

T1: FL-RAD52 (Homo sapiens, UniProt P43351 1-418)
T1 sequence: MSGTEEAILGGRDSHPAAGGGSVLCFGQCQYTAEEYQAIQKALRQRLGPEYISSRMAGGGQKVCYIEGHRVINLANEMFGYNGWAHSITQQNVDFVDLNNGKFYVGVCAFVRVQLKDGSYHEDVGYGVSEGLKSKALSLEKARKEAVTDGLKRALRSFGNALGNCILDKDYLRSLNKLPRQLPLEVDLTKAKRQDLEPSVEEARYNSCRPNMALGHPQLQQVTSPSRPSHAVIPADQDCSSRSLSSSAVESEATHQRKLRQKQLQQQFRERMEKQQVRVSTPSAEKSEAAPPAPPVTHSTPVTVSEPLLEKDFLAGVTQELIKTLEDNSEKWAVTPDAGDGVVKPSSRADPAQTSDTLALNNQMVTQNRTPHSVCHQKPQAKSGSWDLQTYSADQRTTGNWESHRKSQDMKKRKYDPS

B1: Human full-length RAD52 (FL-RAD52), 6xHis-tagged (natural protein, UniProt P43351 1-418, looked up)
chain: T1 sequence
notes: Human RAD52, full length, 418 amino acids (47 kDa); expression vector pET15b (Addgene, number not given); In the MST experiment the copy held at constant concentration was labelled with RED-NHS (amine dye NT-647-NHS); No tag cleavage is described; the SAXS deposit is named 'His-Tagged full-length'; also called DNA repair protein RAD52 homolog; source: E. coli BL21 (DE3) Rosetta pLysS, purified …
B2: dT30 ssDNA (ssDNA)
DNA: TTTTTTTTTTTTTTTTTTTTTTTTTTTTTT

Columns and labels:
[1] = target: the molecule itself; experiment: MST; apparent; RED-NHS labelled FL-RAD52 constant at 10 nM, unlabelled FL-RAD52 0.7 nM-25 μM; 25 °C; 25 mM Hepes pH 7.5, 5% glycerol, 250 mM NaCl, 0.05% Tween 20; step of self-association not stated
FL-RAD52 = target: T1, FL-RAD52; experiment: fluorescence polarization; apparent Kd; 10 nM DNA; FP: 25 mM Tris-HCl pH 7.5, 62.5 mM NaCl, 5% glycerol, 1 mM DTT, room temperature, 15 min; conditions: protein: recombinant; tags: His-tag (pET15b); label: 5'-6-FAM; single strand

Binder | Kd [1] | Kd (FL-RAD52)
B1 | 13 µM | –
B2 | – | 0.0372 ± 0.0004 µM
